Reference: PMC9008041

How the values were obtained:
[1] = target: purified polymeric mucin MUC5B (human) (UniProt Q9HC84); assay: rate-zonal centrifugation on sucrose gradients; purified polymeric mucin incubated 1 h at 37 °C with cyclic peptide (1 mM; CsA also 200 μM and 2 mM; MUC5B 100, 200 or 400 μg/mL), 10-35% (w/v) sucrose in PBS pH 7.4, 210,000 g, 15 °C, 1 h 15 min; mucin detected in fractions and pellet by slot blot; the peptide itself is not detected
[2] = target: purified polymeric mucin MUC5AC (human) (UniProt P98088); assay: as above
[3] = target: purified polymeric mucin MUC2 (human) (UniProt Q02817); assay: as above
[4] = target: purified polymeric mucin MUC5B (human) (UniProt Q9HC84); assay: rate-zonal centrifugation on sucrose gradients; purified MUC5B with 200 μM CsA in PBS at pH 5.5, compared with pH 7.4; 10-35% (w/v) sucrose; MUC5B detected by slot blot
[5] = target: recombinant N-terminal protein of MUC5B (NT5B) (human) (UniProt Q9HC84); assay: rate-zonal centrifugation on sucrose gradients; recombinant NT5B or CT5B with 200 μM CsA in PBS at pH 5.5, compared with pH 7.4; 5-20% (w/v) sucrose; detected by anti-His slot blot
[6] = target: recombinant N-terminal protein of MUC5B (NT5B) (human) (UniProt Q9HC84); assay: rate-zonal centrifugation on sucrose gradients; recombinant MUC5B sub-domain (NT5B, CT5B 400 μg/mL) incubated 1 h at 37 °C with 1 mM CsA, 5-20% (w/v) sucrose in PBS pH 7.4, 210,000 g, 15 °C, 2 h 30 min; protein detected by anti-His slot blot (NT5B, CT5B) or SDS-PAGE (Cys7)
[7] = target: recombinant C-terminal protein of MUC5B (CT5B) (human); assay: as above

percent of MUC5B in the pellet (1 mM CsA, MUC5B 100 μg/mL) [1]: 18.6%
percent of MUC5B in the pellet (1 mM CsA, MUC5B 200 μg/mL) [1]: 13.3%
percent of MUC5B in the pellet (2 mM CsA, MUC5B 200 μg/mL) [1]: 11.8%
percent of MUC5AC in the pellet (1 mM CsA) [2]: 8.2%
percent of MUC2 in the pellet (1 mM CsA) [3]: 14.6%
fold increase of MUC5B in the pellet at pH 5.5 against pH 7.4 (200 μM CsA) [4]: 3.6 fold
fold increase of NT5B in the pellet at pH 5.5 against pH 7.4 (200 μM CsA) [5]: 4.2 fold
percent of NT5B in the pellet (1 mM CsA) [6]: 16.3%
percent of CT5B in the pellet (1 mM CsA) [7]: 29.1%
Substance: cyclosporin A (peptide)
